Laboratory results from publication PMC3386781.

Experiments:
purified protein [1] = substrate: Br; assay: purified protein; settings: co-substrate SAM; tag removed
purified protein [2] = substrate: N#CS; assay: purified protein; settings: co-substrate SAM; tag removed

Protein | Km (purified protein [1]) | Vmax (purified protein [1]) | Km (purified protein [2]) | Vmax (purified protein [2])
AtHTMT1 (AtHOL1; halide/thiocyanate methyltransferase, HTMT) (Arabidopsis thaliana) (protein) MAEEQQNSDQSNGGNVIPTPEEVATFLHKTVEEGGWEKCWEEEITPWDQGRATPLIVHLVDTSSLPLGRALVPGCGGGHDVVAMASPERFVVGLDISESALAKANETYGSSPKAEYFSFVKEDVFTWRPTELFDLIFDYVFFCAIEPEMRPAWAKSMYELLKPDGELITLMYPITDHVGGPPYKVDVSTFEEVLVPIGFKAVSVEENPHAIPTRKGKEKLGRWKKIN | 24.87 ± 2.785 mM | 0.0114 µmol/min/mg | 0.099 ± 0.020 mM | 0.0436 µmol/min/mg
AtHTMT1 (AtHOL1; halide/thiocyanate methyltransferase, HTMT) (Arabidopsis thaliana; V23C) (protein) MAEEQQNSDQSNGGNVIPTPEECATFLHKTVEEGGWEKCWEEEITPWDQGRATPLIVHLVDTSSLPLGRALVPGCGGGHDVVAMASPERFVVGLDISESALAKANETYGSSPKAEYFSFVKEDVFTWRPTELFDLIFDYVFFCAIEPEMRPAWAKSMYELLKPDGELITLMYPITDHVGGPPYKVDVSTFEEVLVPIGFKAVSVEENPHAIPTRKGKEKLGRWKKIN | 21.06 ± 1.883 mM | 0.0124 µmol/min/mg | 0.103 ± 0.009 mM | 0.0434 µmol/min/mg
AtHTMT1 (AtHOL1; halide/thiocyanate methyltransferase, HTMT) (Arabidopsis thaliana; Y172F) (protein) MAEEQQNSDQSNGGNVIPTPEEVATFLHKTVEEGGWEKCWEEEITPWDQGRATPLIVHLVDTSSLPLGRALVPGCGGGHDVVAMASPERFVVGLDISESALAKANETYGSSPKAEYFSFVKEDVFTWRPTELFDLIFDYVFFCAIEPEMRPAWAKSMYELLKPDGELITLMFPITDHVGGPPYKVDVSTFEEVLVPIGFKAVSVEENPHAIPTRKGKEKLGRWKKIN | 30.16 ± 2.942 mM | 0.0114 µmol/min/mg | 0.141 ± 0.009 mM | 0.046 µmol/min/mg
